Experimental data as given in patent US20030100060A1.

Tests used:
[1] = target: Inactivated Venezuelan equine encephalitis (VEE) whole virus antigen, strain TC-83 (Venezuelan equine encephalitis virus, strain TC-83) (UniProt P05674); assay: ELISA, HB2151 whole cell lysate, wells with and without VEE whole virus antigen
[2] = target: Inactivated Venezuelan equine encephalitis (VEE) whole virus antigen, strain TC-83 (Venezuelan equine encephalitis virus, strain TC-83) (UniProt P05674); assay: ELISA, […], in triplicate, […]
[3] = target: Inactivated Venezuelan equine encephalitis (VEE) whole virus antigen, strain TC-83 (Venezuelan equine encephalitis virus, strain TC-83) (UniProt P05674); assay: ELISA of whole cell lysates on VEE antigen (FIG. 10)
[4] = target: Inactivated Venezuelan equine encephalitis (VEE) whole virus antigen, strain TC-83 (Venezuelan equine encephalitis virus, strain TC-83) (UniProt P05674)
[5] = target: Inactivated Venezuelan equine encephalitis (VEE) whole virus antigen, strain TC-83 (Venezuelan equine encephalitis virus, strain TC-83) (UniProt P05674); remark: listed apart in the source

Sequence of UniProt P05674 (P05674 335-757 limits assumed): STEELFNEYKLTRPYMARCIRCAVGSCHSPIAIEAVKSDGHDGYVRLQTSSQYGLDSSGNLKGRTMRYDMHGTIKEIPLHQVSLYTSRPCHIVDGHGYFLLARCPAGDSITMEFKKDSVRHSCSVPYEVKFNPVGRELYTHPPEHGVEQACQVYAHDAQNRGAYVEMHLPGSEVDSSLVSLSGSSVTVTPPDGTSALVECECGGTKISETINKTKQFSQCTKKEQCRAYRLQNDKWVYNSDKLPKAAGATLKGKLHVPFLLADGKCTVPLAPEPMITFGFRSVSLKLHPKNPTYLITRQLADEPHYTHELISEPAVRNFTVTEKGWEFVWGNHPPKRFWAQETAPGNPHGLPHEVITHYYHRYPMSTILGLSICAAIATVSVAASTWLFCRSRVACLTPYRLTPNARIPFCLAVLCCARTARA

B1: MA116-15 ScFv antibody (mutagenized, repaired A116) (scFv)
scFv: MAQVQLQESGPELVKPGASVKISCKASGYTFTDYHVHWVKGKPGQGLEWIGMTYPGFDNTNYSETFKGKATLTVDTSSNTVYMQLSSLTSEDTAVYFCARGVGLDYWGQGTTVTVSSGGGGSGGGGSGGGGSDIELTQSPNSLSTSIGDRIRITCKASQDVDTAVGWYQQRPGQSPKLLIFWSSTRHTGVPDRFTGSGSGTDFTLTISNVQSEDLADYFCHQYSSYPFTFGSGTKLEIKRAAAGAPVPYPDPLEPRAA
**Q.** For B1, which fold retention, with VEE antigen over without [1] is on record?
**A.** Its fold retention, with VEE antigen over without is over 2.5 fold.

**Q.** What about the fold ELISA reactivity against the original A116 clone [2] of the same binder?
**A.** Its fold ELISA reactivity against the original A116 clone is 4 fold.

**Q.** And the fold ELISA reactivity against the parental A116 clone [3]?
**A.** Its fold ELISA reactivity against the parental A116 clone is over 4 fold.

B2: MA116-4 ScFv antibody (scFv)
scFv: MAQVQLQESGPELVKPGASVKISCKASGYTFTDYHVHWVKGKPGQGLEWIGMTYPGFDNTNYSETFKGKATLTVDTSSNTVYMQLSSLTSEDTAVYFCARGVGLDYWGQGTTVTVSSGGGGSGGGGSGGGGSASSSLSLSNSLSTSIGDRIRITCKASQDVDTAVGWYQQRPGQSPKLLIFWSSTRHTGVPDRFTGSGSGTDFTLTISNVQSDDLADYFCHQYSSYPFTFGSGTKLEIKRAAAGAPVPYPDPLEPRAA
**Q.** With B2 as the binder, how does the fold retention, with VEE antigen over without [1] read?
**A.** The fold retention, with VEE antigen over without was over 2.5 fold.

B3: MA116-6 ScFv antibody (scFv)
scFv: MAQVQLQESGPELVKPGASVKISCKASGYTFTDYHVHWVKGKPGQGLEWIGMTYPGFDDTNYSETFKGKATLTVDTSSNTVYMQLSSLTSEDTAVYFCARGVGLDYWGQGTTVTVSSGGGGSGGGGSGGGGSDSSSLVSKFVSTSIGDRIRITCKASQDVDTAVGWYQQRPGQSPKLLIFWSSTRHTGVPDRFTGSGSGTDFTLTISNVQSEDLADYFCHQYSSYPFTFGSGTKLEIKRAAAGAPVPYPDPLEPRAA
**Q.** Which fold retention, with VEE antigen over without [1] does the source give for B3 here?
**A.** The fold retention, with VEE antigen over without was over 2.5 fold.

B4: A116 ScFv antibody (recombinant single chain variable fragment cloned from hybridoma 1A4A1) (scFv)
scFv: MAQVQLQESGPELVKPGASVKISCKASGYTFTDYHVHWVKGKPGQGLEWIGMTYPGFDNTNYSETFKGKATLTVDTFSTTVYMQLSSLTSEDTVVYFCARGVGLDYWGQGTTVTVSSGGGGSGGGGSGGGGSDSSSLVSKFVSTSIGDRIRITCKASQDVDTAVGWYQQRPGQSPKLLIFWSSTRHTGVPDRFTGSGSGTDFTLTISNVQSEDLADYFCHQYSSHPFTFGSGTKLEIKRAAAGAPVPYPDPLEPRAA
**Q.** Which fold absorbance, wells with VEE antigen over wells without [4] does the source give for B4 here?
**A.** The fold absorbance, wells with VEE antigen over wells without was over 2 fold.

**Q.** What about the fold absorbance over the HB2151 negative control lysate [5] of the same binder?
**A.** The fold absorbance over the HB2151 negative control lysate was 4 fold.
